In the test the target is T1, Aβ plaques (Homo sapiens, UniProt P05067).
T1 construct: have an increased Aβ 1-42 expression and plaque formation; from tissue; host or cells: frontal brain slices of transgenic Tg2576 mice aged 10 to 11 months
The test can be described thus: Ex vivo histological staining of plaques in frontal brain slices of transgenic Tg2576 mice with FITC-labelled D-peptides (fluorescence microscopy, Congo red control). Format: binding. To be noted: frontal brain slices (cortex) of Tg2576 mice aged 10 to 11 months; for region of the plaques stained (more intensely): FITC-labelled peptide. An excerpt:
The binding properties of the available peptides to Aβ plaques were investigated. For staining frontal brain slices, use was made of preparations of transgenic Tg2576 mice aged from 10 to 11 months, which due to the human APP gene bearing the Swedish mutation have an increased Aβ 1-42 expression and plaque formation. In these mice, it was also possible to detect AβpE3-x as a plaque constituent.
For the tests, the peptides were synthetically produced and labelled by a commercial supplier, A test was then carried out, ex vivo, to determine the regions of the plaques to which binding had mainly taken place. It must be assumed here that Aβ plaques consist of different Aβ species, such as, for example, Aβ1-40, 1-42 and AβpE3-x.
All the peptides are combined with fluorescein isothiocyanate (FITC) for detection by means of fluorescence microscopy.
As a further control, the same tests were carried out after Congo red staining, which served to verify the plaque structures (bottom image in each case). It must be assumed that the plaques are composed of different Aβ isoforms (Aβ 1-40, 1-42, AβpE3-x). Slices from wild-type animals without plaque formation were also treated. In these tests, no Congo red or fluorescein fluorescence could be detected (data not shown).

Square brackets hold non-standard residues; d marks the D form. Ends that are not written are not given here.

The results in this text go back to patent publication US9611296B2, “Peptides that bind to amino-truncated amyloid-beta-peptide and use of said peptides” (FORSCHUNGSZENTRUM JUELICH GMBH, priority 2012, dated 2017).

T1 sequence (P05067 672-713 limits assumed): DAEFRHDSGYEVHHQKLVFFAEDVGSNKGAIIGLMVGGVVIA

On to “NGAPNKIPRDRE ([dN]G[dA][dP][dN][dK][dI][dP][dR][dD][dR][dE]) [D5, dodecameric D-peptide selected by mirror image phage display against aggregation-nucleus-free AβpE3-x]”, for which the “region of the plaques stained (more intensely)” value (shortened to “region of the plaques stained”) is given as “ring-shaped structures around the inner core of the plaques were stained more intensely”; the “type of plaques stained by the peptide” value was “only plaques having a relatively dense structure, consisting of Aβ fibrils, were stained, but not small and diffuse plaques”.

On to “HTRFEYYVYHMS ([dH][dT][dR][dF][dE][dY][dY][dV][dY][dH][dM][dS]) [D7]”, for which the “region of the plaques stained” value is reported as “at the inner core of the plaques” and the “type of plaques stained by the peptide” value was “stained only dense structures”.

For “AGERLKFIDEHV ([dA]G[dE][dR][dL][dK][dF][dI][dD][dE][dH][dV]) [D6]”, the “region of the plaques stained” value is on record as “ring-shaped structures around the inner core of the plaques were stained more intensely”; the “type of plaques stained by the peptide” value was “only plaques having a relatively dense structure, consisting of Aβ fibrils, were stained, but not small and diffuse plaques”.

“KMEHPNHPPPQR ([dK][dM][dE][dH][dP][dN][dH][dP][dP][dP][dQ][dR]) [D4, dodecameric D-peptide selected by mirror image phage display against aggregation-nucleus-free AβpE3-x]”: the “region of the plaques stained” value was “ring-shaped structures around the inner core of the plaques were stained more intensely”; the “type of plaques stained by the peptide” value was “only plaques having a relatively dense structure, consisting of Aβ fibrils, were stained, but not small and diffuse plaques”.
